Data reported in article PMC7316778 (Nature Communications, 2020).

Assays:
Assay in all cases: PamChip microarray peptide phosphorylation
[1] = target: CSK (Homo sapiens, UniProt P41240); conditions: peptide substrate phosphorylated by CSK
[2] = target: LYN (Homo sapiens, UniProt P07948); conditions: peptide substrate phosphorylated by LYN
[3] = target: SYK (Homo sapiens, UniProt P43405); conditions: peptide substrate phosphorylated by SYK
[4] = target: ABL1 (Homo sapiens, UniProt P00519); conditions: peptide substrate phosphorylated by ABL1
Sequence of ABL1 (P00519 whole entry): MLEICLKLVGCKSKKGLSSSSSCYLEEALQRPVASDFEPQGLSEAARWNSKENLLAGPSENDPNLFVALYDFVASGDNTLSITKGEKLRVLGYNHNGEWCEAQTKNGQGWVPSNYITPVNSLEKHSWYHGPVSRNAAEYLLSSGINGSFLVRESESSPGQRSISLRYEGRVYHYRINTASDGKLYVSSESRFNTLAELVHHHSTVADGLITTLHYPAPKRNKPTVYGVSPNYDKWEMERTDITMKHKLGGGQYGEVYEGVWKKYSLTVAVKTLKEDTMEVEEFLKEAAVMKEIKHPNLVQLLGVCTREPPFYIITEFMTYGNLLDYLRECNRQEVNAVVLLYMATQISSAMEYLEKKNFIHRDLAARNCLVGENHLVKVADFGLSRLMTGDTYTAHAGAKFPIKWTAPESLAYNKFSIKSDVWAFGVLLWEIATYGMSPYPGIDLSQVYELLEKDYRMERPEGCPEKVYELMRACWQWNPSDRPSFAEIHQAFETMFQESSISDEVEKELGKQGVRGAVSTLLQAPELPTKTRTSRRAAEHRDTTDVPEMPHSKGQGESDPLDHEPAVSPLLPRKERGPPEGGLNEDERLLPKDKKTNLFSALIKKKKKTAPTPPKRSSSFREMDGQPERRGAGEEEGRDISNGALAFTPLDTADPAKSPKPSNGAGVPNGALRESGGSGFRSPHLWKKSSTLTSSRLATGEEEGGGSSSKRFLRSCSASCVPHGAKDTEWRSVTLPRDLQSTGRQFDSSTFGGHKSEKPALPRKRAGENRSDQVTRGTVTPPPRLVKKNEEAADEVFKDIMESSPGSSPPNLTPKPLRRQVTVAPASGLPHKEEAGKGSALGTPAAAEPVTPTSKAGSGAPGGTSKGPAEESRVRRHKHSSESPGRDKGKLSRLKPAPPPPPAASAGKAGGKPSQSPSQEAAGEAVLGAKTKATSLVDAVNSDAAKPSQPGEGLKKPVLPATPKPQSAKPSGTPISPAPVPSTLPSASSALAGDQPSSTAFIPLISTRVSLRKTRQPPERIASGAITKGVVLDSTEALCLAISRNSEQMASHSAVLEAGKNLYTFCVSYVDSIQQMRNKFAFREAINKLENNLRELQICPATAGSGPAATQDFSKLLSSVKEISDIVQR

[5] = target: T1, FES^WT (Homo sapiens, UniProt P07332); type: biochemical; conditions: peptide substrate phosphorylated by FES - WT
T1 construct: human FES cDNA encoding residues 448–822 or human FER cDNA encoding residues 448–820 was amplified by PCR; made in house; host or cells: E. coli BL21(DE3), co-expressing YopH phosphatase
T1 sequence (P07332 448-822): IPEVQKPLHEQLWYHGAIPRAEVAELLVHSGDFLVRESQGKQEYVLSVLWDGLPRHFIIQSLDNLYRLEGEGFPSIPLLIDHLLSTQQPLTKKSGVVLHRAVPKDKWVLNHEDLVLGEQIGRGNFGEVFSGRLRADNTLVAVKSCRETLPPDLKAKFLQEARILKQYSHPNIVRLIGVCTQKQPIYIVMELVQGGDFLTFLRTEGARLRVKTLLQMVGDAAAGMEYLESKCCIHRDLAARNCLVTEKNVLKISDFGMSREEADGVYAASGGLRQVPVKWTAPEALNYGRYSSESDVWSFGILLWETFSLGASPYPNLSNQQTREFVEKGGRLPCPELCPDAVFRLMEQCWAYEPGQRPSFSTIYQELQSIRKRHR

[6] = target: FGR (Homo sapiens, UniProt P09769); conditions: peptide substrate phosphorylated by FGR

Sequence of LYN (P07948 whole entry): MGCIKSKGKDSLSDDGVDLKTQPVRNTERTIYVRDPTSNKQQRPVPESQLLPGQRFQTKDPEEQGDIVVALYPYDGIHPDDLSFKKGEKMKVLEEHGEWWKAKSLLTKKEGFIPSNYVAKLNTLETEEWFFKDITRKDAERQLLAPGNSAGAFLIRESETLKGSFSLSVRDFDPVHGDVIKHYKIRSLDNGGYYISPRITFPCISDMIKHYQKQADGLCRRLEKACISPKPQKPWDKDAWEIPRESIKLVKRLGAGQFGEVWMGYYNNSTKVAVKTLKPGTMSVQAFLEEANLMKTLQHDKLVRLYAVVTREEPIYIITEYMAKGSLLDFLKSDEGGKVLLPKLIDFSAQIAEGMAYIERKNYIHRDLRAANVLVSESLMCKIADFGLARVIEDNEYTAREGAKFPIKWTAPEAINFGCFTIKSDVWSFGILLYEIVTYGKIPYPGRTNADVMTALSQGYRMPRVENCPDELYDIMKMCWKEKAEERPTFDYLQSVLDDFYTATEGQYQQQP
Sequence of CSK (P41240 whole entry): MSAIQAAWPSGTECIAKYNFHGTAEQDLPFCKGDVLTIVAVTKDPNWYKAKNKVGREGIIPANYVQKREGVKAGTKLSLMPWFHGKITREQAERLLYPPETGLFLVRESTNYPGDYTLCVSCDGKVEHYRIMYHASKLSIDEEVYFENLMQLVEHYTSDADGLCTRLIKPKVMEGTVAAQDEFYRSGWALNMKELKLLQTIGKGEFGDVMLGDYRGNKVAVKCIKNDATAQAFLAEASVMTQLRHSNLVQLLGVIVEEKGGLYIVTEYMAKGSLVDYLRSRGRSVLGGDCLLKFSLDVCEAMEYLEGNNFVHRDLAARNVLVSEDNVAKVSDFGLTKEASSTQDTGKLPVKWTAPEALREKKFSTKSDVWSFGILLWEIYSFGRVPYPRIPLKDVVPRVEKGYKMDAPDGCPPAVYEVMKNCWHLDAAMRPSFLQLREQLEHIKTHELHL

Substance	Relative phosphorylation (% of highest signal) [1]	Relative phosphorylation (% of highest signal) [2]	Relative phosphorylation (% of highest signal) [3]	Relative phosphorylation (% of highest signal) [4]	Relative phosphorylation (% of highest signal) [5]	Relative phosphorylation (% of highest signal) [6]
NPT2A_501_513 (AKALGKRTAKYRW; UniProt Q06495 501-513, looked up, fragment)	-0.4 % of highest signal	-0.318 % of highest signal	-0.846 % of highest signal	-0.2 % of highest signal	0.553 % of highest signal	-2.1 % of highest signal
NTRK2_509_521 (PVIENPQYFGITN; UniProt Q16620 509-521, looked up, fragment)	-0.422 % of highest signal	0.113 % of highest signal	0.0821 % of highest signal	-0.0217 % of highest signal	-0.566 % of highest signal	-1.0 % of highest signal
ODBA_340_352_D340K (KDSSAYRSVDEVN; UniProt P12694 340-352, looked up, variant D340K)	10.4 % of highest signal	0.112 % of highest signal	1.5 % of highest signal	5.2 % of highest signal	-0.457 % of highest signal	-0.358 % of highest signal
PERI_458_470 (QRSELDKSSAHSY; UniProt P41219 458-470, looked up, fragment)	-0.632 % of highest signal	-0.0931 % of highest signal	-1.3 % of highest signal	-0.4 % of highest signal	-0.5 % of highest signal	-1.2 % of highest signal
STA5A_687_699 (LAKAVDGYVKPQI; UniProt P42229 687-699, looked up, fragment)	-1.3 % of highest signal	-0.4 % of highest signal	-1.9 % of highest signal	-0.439 % of highest signal	-0.46 % of highest signal	-3.6 % of highest signal
STAT1_694_706 (DGPKGTGYIKTEL; UniProt P42224 694-706, looked up, fragment)	-1.4 % of highest signal	-0.0105 % of highest signal	-1.9 % of highest signal	-0.6 % of highest signal	-0.5 % of highest signal	-3.3 % of highest signal
STAT4_686_698 (TERGDKGYVPSVF; UniProt Q14765 686-698, looked up, fragment)	-0.9 % of highest signal	-0.165 % of highest signal	-1.2 % of highest signal	-0.7 % of highest signal	-0.247 % of highest signal	-4.1 % of highest signal
STAT6_634_646 (MGKDGRGYVPATI; UniProt P42226 634-646, looked up, fragment)	-1.1 % of highest signal	-0.3 % of highest signal	-2.2 % of highest signal	-0.6 % of highest signal	-0.355 % of highest signal	-4.7 % of highest signal
VGFR1_1046_1058_Y1048F (DIFKNPDYVRKGD; UniProt P17948 1046-1058, looked up, variant Y1048F)	-0.9 % of highest signal	-0.0478 % of highest signal	1.1 % of highest signal	-0.449 % of highest signal	-0.452 % of highest signal	-2.7 % of highest signal
VGFR1_1049_1061 (KNPDYVRKGDTRL; UniProt P17948 1049-1061, looked up, fragment)	-0.8 % of highest signal	-0.274 % of highest signal	-0.167 % of highest signal	-0.36 % of highest signal	-0.333 % of highest signal	-2.4 % of highest signal
VGFR1_1162_1174 (VQQDGKDYIPINA; UniProt P17948 1162-1174, looked up, fragment)	-0.737 % of highest signal	-0.153 % of highest signal	1.8 % of highest signal	-0.426 % of highest signal	2.3 % of highest signal	-3.4 % of highest signal
VGFR1_1206_1218 (GSSDDVRYVNAFK; UniProt P17948 1206-1218, looked up, fragment)	-0.459 % of highest signal	-0.1 % of highest signal	-0.354 % of highest signal	0.0233 % of highest signal	-0.0198 % of highest signal	-1.0 % of highest signal
VGFR1_1235_1247 (ATSMFDDYQGDSS; UniProt P17948 1235-1247, looked up, fragment)	-0.5 % of highest signal	-0.0433 % of highest signal	17.6 % of highest signal	-0.543 % of highest signal	-0.11 % of highest signal	0.9 % of highest signal
VGFR1_1320_1332_C1320K/C1321K (KKSPPPDYNSVVL; UniProt P17948 1320-1332, looked up, variant C1320K C1321K)	-0.847 % of highest signal	-0.28 % of highest signal	4.3 % of highest signal	-0.0535 % of highest signal	2.0 % of highest signal	-2.8 % of highest signal
VGFR2_944_956 (RFRQGKDYVGAIP; UniProt P35968 944-956, looked up, fragment)	-0.8 % of highest signal	-0.364 % of highest signal	0.9 % of highest signal	-0.378 % of highest signal	0.741 % of highest signal	-1.0 % of highest signal
VGFR2_989_1001 (EEAPEDLYKDFLT; UniProt P35968 989-1001, looked up, fragment)	30.5 % of highest signal	2.8 % of highest signal	15.3 % of highest signal	2.3 % of highest signal	10.0 % of highest signal	21.5 % of highest signal
